Laboratory results from patent US20250195677A1 (CEPHALON, published 2025).

What was measured:
[1] = biological target: T1, human PD-1 (amino acids 1-185) stably expressed on Jurkat cells (human, UniProt Q15116 21-185); test: flow cytometry, Jurkat+hPD-1
T1 construct: extracellular domain and a portion of the transmembrane domain, on cells; also called hPD-1; Jurkat+hPD-1 cell line
Method: (§1) Antibodies or antibody-attenuated hIL-2 immunoconjugates (fusion proteins) were serially diluted six-fold in FACS buffer for an 8-point curve and added to human PD-1 expressing Jurkat cells for 1 hour on ice in 100 μL volume. Cells were washed and re-suspended in FACS buffer containing 1:40 dilution of Allophycocyanin conjugated anti-human IgG Fc monoclonal antibody. Cells were washed once more, re-suspended in FACS buffer containing 1:1000 dilution of Sytox Green (Thermo Fisher) and flow cytometric analysis was conducted on the BD FACS Canto II, BD Celesta or BD Fortessa (BD Biosciences) flow cytometers. The geometric mean fluorescent intensity (gMFI) was calculated using FlowJo software version 10. Half maximal effective concentration (EC₅₀) values were calculated from the gMFI of the Allophycocyanin signal across the titrated concentrations using GraphPad Prism 7 software.
(§2) The anti-PD-1 variable region sequences were expressed as human IgG4 kappa antibodies and were evaluated for the ability to bind to PD-1 expressing cells using flow cytometry as described in General Methods Protocol A. Antibodies to be tested were first screened for binding to human PD-1 using a Jurkat cell line expressing recombinant human PD-1 (Jurkat+hPD-1 cell line).

[2] = biological target: human PD-1 on Jurkat Effector cells (Promega PD-1/PD-L1 blockade bioassay) (human, UniProt Q15116 25-288); test: cell-based or functional assay
[3] = biological target: T1, human PD-1 (amino acids 1-185) stably …; test: flow cytometry, Jurkat+hPD-1 cells, APC anti-human IgG Fc, gMFI; no competitor
Method: Briefly, Jurkat cells stably expressing hPD-1 (as described in Protocol A above) were washed and re-suspended in FACS buffer containing 1:50 dilution of human FcR Blocking reagent. Cells were incubated at 4° C. for 10 minutes and washed. […] Cells were washed and incubated with test antibodies or antibody-attenuated hIL-2 fusion proteins serially diluted six-fold for an 8-point curve in 100 μL volume for one hour at 4° C. To detect bound test anti-hPD-1 antibodies or anti-hPD-1-attenuated hIL-2 fusion proteins, cells were washed again and incubated with 1:40 dilution of Allophycocyanin-conjugated anti-human IgG Fc monoclonal antibody for 45 minutes on ice. Cells were washed and re-suspended in FACS buffer containing 1:1000 dilution of Sytox Green (Thermo Fisher). […] Flow cytometry was carried out on the BD Canto II, BD Celesta, or BD Fortessa (BD Biosciences) flow cytometers and gMFI was calculated using FlowJo software version 10. EC₅₀ values were calculated from the gMFI of the Allophycocyanin signal across the titrated concentrations using GraphPad Prism 7 software.

[4] = biological target: T1, human PD-1 (amino acids 1-185) stably …; test: flow cytometry, Jurkat+hPD-1, multiple experiments
Method: as §1, §2

T1 sequence (Q15116 21-185 limits assumed, form in doubt): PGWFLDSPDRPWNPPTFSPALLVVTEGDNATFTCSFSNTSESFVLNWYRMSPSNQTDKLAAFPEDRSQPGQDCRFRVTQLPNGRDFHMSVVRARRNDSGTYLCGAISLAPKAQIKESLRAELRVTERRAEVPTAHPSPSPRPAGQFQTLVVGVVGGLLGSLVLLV
human PD-1 on Jurkat Effector cells (Promega PD-1/PD-L1 blockade bioassay), sequence (Q15116 25-288): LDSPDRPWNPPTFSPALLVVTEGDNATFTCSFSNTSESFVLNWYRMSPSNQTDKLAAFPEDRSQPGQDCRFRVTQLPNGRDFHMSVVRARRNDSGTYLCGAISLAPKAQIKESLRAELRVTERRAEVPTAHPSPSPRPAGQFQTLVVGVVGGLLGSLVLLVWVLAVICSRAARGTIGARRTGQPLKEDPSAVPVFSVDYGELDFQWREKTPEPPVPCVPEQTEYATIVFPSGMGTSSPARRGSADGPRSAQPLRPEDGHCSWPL

Row | EC50 [1] | luminescence, hPD-1/hPD-L1 blockade bioassay [2] | EC50 (read off the curve) [3] | EC50 [4] | Binder
1 | 3 to 16 nM |  |  |  | A2-hIgG4 (antibody, V domains shown) VH: DVQLVESGGGLVQPGGSLRLSCAASGFTFDISAMSWVRQAPGKGLEWVSTISGSAYSTYYADSVKGRFTISRDNSKSTLYLQMNSLRAEDTAVYYCAREIFSDYWGLGTLVTVSS VL: QSVLTQPPSASGTPGQRVTISCSGSTSNIGRESVYWYQQLPGTAPKLLIYSNVQRPSGAPNRFSGSKSGTSASLAISGLQSEDEADYYCGTWDDSLNGWVFGGGTKLTVLG
2 | 3 to 16 nM | ~3000 RLU |  |  | OMC.2.C6-hIgG4 (antibody, V domains shown) VH: EVQLLESGGGLVQPGGSLRLSCTASGFTFSSYEMQWVRQAPGKGLEWVLGITSSSSHIFYADSVKGRFTVSRDNSKNTLYLQMNSLRAEDTAVYYCTKDLNSYYGLDVWGQGTTVTVSS VL: QSVMTQPPSASGTPGQRVTISCSGSTSNLGNNYVSWYQHLPGTAPKLLIYGNDQRPSGVPDRFSGSKSGTSASLAISGLQSDDEADYYCSSWDASLNVWVFGGGTKLTVLG
3 | 3 to 16 nM | ~3000 RLU |  |  | OMC.1.B6-hIgG4 (antibody, V domains shown) VH: EVQLLESGGGLVQPGGSLRLSCAASGFTFSSNYMSWVRQAPGKGLEWVSAISSSGGTIFYADSVKGRFTISRDNSKNTLYLQMNSLRAEDTAVYYCAKHKWNAVYYDGMDVWGQGTTVTVSS VL: QSVLTQPPSASGTPGQRVTISCSGSNSNIGRNLVNWYQQLPGTAPKLLIYTIDQRPSGVPDRFSGSKSGTSASLVISGLQSEDEADYYCAAWDGSLNAWVFGGGTKLTVLG
4 | 3 to 16 nM | ~3000 RLU |  |  | OMC.1.D6-hIgG4 (antibody, V domains shown) VH: EVQLLESGGGLVQPGGSLRLSCAASGFTFSDYYMSWVRQAPGKGLEWVSAISSSGGTIFYADSVKGRFIISRDNSKNTLYLQMNSLRAEDTAVYYCAKHKWNDVYYDAMDVWGQGTTVTVSS VL: QSVLTQPPSASGTPGQRVTISCSGSNSNIGRNLVNWYQQLPGTAPKLLIYTVDQRPSGVPDRFSGSKSGTSASLAISGLASEDEADYYCAAWDSSLNSWVFGGGTKLTVLG
5 |  |  | ~3 nM |  | C51E6-5-hIgG4 (antibody, V domains shown) VH: QVQLVQSGSELKKPGASVKVSCKASGYSLYGTSMHWVRQAPGQGLEWMGYISPFTGRATYAQGFTGRFVFSLDTSVSTAYLQISSLKAEDTAVYYCARDYDYRYYYAMDYWGQGTTVTVSS VL: EIVLTQSPDFQSVTPKEKVTITCTASESVPPQFLHWYQQKPDQSPKLLIYASRERASGVPSRFSGSGSGTDFTLTINSLEAEDAATYYCHQFHRSPLTFGGGTKLEIKR
6 |  | ~3000 RLU |  | 0.1 to 0.3 nM | 2A3.H7-hIgG4 (antibody, V domains shown) VH: EVQLLESGGGLVQPGGSLRLSCAASGFTFKDYCMTWVRQAPGKGLEWVSAIVYSGGSTYYADSVKGRFTISRDNSKNTLYLQMNNLRAEDTAVYYCAKYTRASYFYDAMDVWGQGTTVTVSS VL: EIVLTQSPGTLSLSPGERATLSCRASQSIGRSFLAWYQQKPGQAPRLLIYDASTRAADIPARFSGSGSGTDFTLTISSLEPEDFAVYYCQQYYDWPPLSFGGGTKVEIKR
7 |  |  |  | 0.1 to 0.3 nM | 2H7-hIgG4 (antibody, human IgG4 kappa) heavy: not shown light: EIVLTQSPGTLSLSPGERATLSCRASQSIGKSFLAWYQQKPGQAPRLLIYDASTRAADIPARFSGSGSGTDFTLTISSLEPEDFAVYYCQQYYDWPPLSFGGGTKVEIKRTVAAPSVFIFPPSDEQLKSGTASVVCLLNNFYPREAKVQWKVDNALQSGNSQESVTEQDSKDSTYSLSSTLTLSKADYEKHKVYACEVTHQGLSSPVTKSFNRGEC
8 |  | ~3000 RLU |  | 0.1 to 0.3 nM | 1D5-hIgG4 (antibody, V domains shown) VH: EVQLLESGGGLVQPGGSLRLSCVGSGFNFKDYCMTWVRQAPGKGLEWVSAIVYSGGSTYYADSVKGRFTISRDNSKNTLYLQMNSLRAEDTAVYYCAKYTRGSYFYDAMDVWGQGTTVTVSS VL: EIVLTQSPGTLSLSPGERATLSCRASQSIGRSFLAWYQQKPGQAPRLLIYDASTRATDIPDRFSGSGSGTEFTLTISSLQSEDFAVYYCQQYYDWPPLTFGGGTKVEIKR
9 |  | ~3000 RLU |  | 0.1 to 0.3 nM | 1H9-hIgG4 (antibody, V domains shown) VH: EVQLLESGGGLVQPGGSLRLSCVGSGFNLKDYCMTWVRQAPGKGLEWVSAIVYSGGSTYYADSVKGRFTISRDNSKNTLYLQMNSLRAEDTAVYYCAKYTRGSYFYDAMDVWGQGTTVTVSS VL: EIVLTQSPGTLSLSPGERATLSCRASQSIGRSFLAWYQQKPGQAPRLLIYDASTRAADIPDRFSGSGSGTDFTLTINRLEPEDFAVYYCQQYYDWPPLTFGGGTKVEIKR
